Results reported in patent US9803013B2, “Biological materials and uses thereof” (BioInvent International AB, priority 2005, dated 2017).

Assays:
[1] = tested on: RL; assay: Apoptosis induction by cross-linked IgG (Annexin V/PI); assay type: cell-based, human; conditions: viable cells after 6 hour incubation, crosslinked, compared to control FITC-8 IgG1
Procedure: (§1) 2×10^5 B lymphoma cells (Raji or Ramos) or Jurkat T cells were incubated with serially diluted and detoxified scFv's in culture medium for 1 h on ice.
(§2) When whole IgGs were used for apoptosis induction, cross-linking reagent was replaced by goat Fab′2 anti-human Fc γ antibody (Jackson ImmunoResearch) with minimal cross-reactivity with non-IgG antibody isotypes (to avoid unspecific cross-linking of endogenous B lymphoma associated surface immunoglobulins) and incubated, as described above, for 6 h.
(§3) Apoptotic cells were, unless otherwise stated, detected by combined staining with Annexin V Alexa Fluor 488 (AV) and Propidium Iodide (PI) (both from Molecular Probes, Invitrogen) and subsequent flow-cytometric analysis, Cells were defined as viable (AV−/PI−), early apoptotic (AV+/PI−) or late apoptotic/necrotic (AV+/PI+). AV and PI signals were recorded in the FL1 and FL2 or FL3 channels (as indicated in the text), respectively, using a FACSCalibur instrument (BD Biosciences).
(§4) • ^aApoptosis Induction; determined by percentage of viable cells after 6 hour incubation with any of the human antibodies, crosslinked with Goat anti-Human (gamma) Fc specific antibody; −, viability not affected; +, 95-80%; ++, 79-60%; +++, 59-40% viable cells compared to control (human FITC-8 IgG1). […] The cell line dependent MFI value of control human FITC-8 IgG antibody was subtracted from the MFI of each human antibody.

[2] = tested on: Reh/KM-3; assay: as above; assay type: cell-based, human; conditions: viable cells after 6 hour incubation, crosslinked, compared to control FITC-8 IgG1
Procedure: as §1, §2, §3, §4

[3] = tested on: NCEB-1; assay: as above; assay type: cell-based, human; conditions: viable cells after 6 hour incubation, crosslinked, compared to control FITC-8 IgG1
Procedure: as §1, §2, §3, §4

[4] = tested on: JVM-2; assay: as above; assay type: cell-based, human; conditions: viable cells after 6 hour incubation, crosslinked, compared to control FITC-8 IgG1
Procedure: as §1, §2, §3, §4

[5] = tested on: CL-01; assay: as above; assay type: cell-based, human; conditions: viable cells after 6 hour incubation, crosslinked, compared to control FITC-8 IgG1
Procedure: as §1, §2, §3, §4

[6] = tested on: BJAB; assay: as above; assay type: cell-based, human; conditions: viable cells after 6 hour incubation, crosslinked, compared to control FITC-8 IgG1
Procedure: as §1, §2, §3, §4

[7] = tested on: Jeko-1; assay: as above; assay type: cell-based, human; conditions: viable cells after 6 hour incubation, crosslinked, compared to control FITC-8 IgG1
Procedure: as §1, §2, §3, §4

[8] = tested on: Rec-1; assay: IgG binding to B lymphoma cell line, flow cytometry MFI; set-up: species or system human; conditions: Rec-1, Mantle cell Lymphoma; control FITC-8 IgG MFI subtracted
Procedure: as §4

[9] = tested on: DOHH-2; assay: as above; set-up: species or system human; conditions: DOHH-2, Follicular Lymphoma; control FITC-8 IgG MFI subtracted
Procedure: as §4

[10] = tested on: RL; assay: as above; set-up: species or system human; conditions: Follicular Lymphoma, control FITC-8 IgG MFI subtracted
Procedure: as §4

[11] = tested on: SC-1; assay: as above; set-up: species or system human; conditions: SC-1, Follicular Lymphoma; control FITC-8 IgG MFI subtracted
Procedure: as §4

[12] = tested on: Ramos; assay: as above; set-up: species or system human; conditions: Burkitt's Lymphoma, control FITC-8 IgG MFI subtracted
Procedure: as §4

[13] = tested on: NCEB-1; assay: as above; set-up: species or system human; conditions: NCEB-1, Mantle cell Lymphoma; control FITC-8 IgG MFI subtracted
Procedure: as §4

[14] = tested on: JVM-2; assay: as above; set-up: species or system human; conditions: JVM-2, Mantle cell Lymphoma; control FITC-8 IgG MFI subtracted
Procedure: as §4

[15] = tested on: Raji; assay: as above; set-up: species or system human; conditions: Burkitt's Lymphoma, control FITC-8 IgG MFI subtracted
Procedure: as §4

[16] = tested on: Granta 519; assay: as above; set-up: species or system human; conditions: Granta 519, Mantle cell Lymphoma; control FITC-8 IgG MFI subtracted
Procedure: as §4

[17] = tested on: CL-01; assay: as above; set-up: species or system human; conditions: CL-01, Burkitt's Lymphoma; control FITC-8 IgG MFI subtracted
Procedure: as §4

[18] = tested on: WSU-NHL; assay: as above; set-up: species or system human; conditions: Follicular Lymphoma, control FITC-8 IgG MFI subtracted
Procedure: as §4

[19] = tested on: Daudi; assay: as above; set-up: species or system human; conditions: Burkitt's Lymphoma, control FITC-8 IgG MFI subtracted
Procedure: as §4

[20] = tested on: BJAB; assay: as above; set-up: species or system human; conditions: Burkitt's Lymphoma, control FITC-8 IgG MFI subtracted
Procedure: as §4

[21] = tested on: SP-53; assay: as above; set-up: species or system human; conditions: SP-53, Mantle cell Lymphoma; control FITC-8 IgG MFI subtracted
Procedure: as §4

[22] = tested on: Jeko-1; assay: as above; set-up: species or system human; conditions: Jeko-1, Mantle cell Lymphoma; control FITC-8 IgG MFI subtracted
Procedure: as §4

[23] = tested on: MC/CAR; assay: IgG binding to multiple myeloma cell line, flow cytometry MFI; set-up: species or system human; conditions: control FITC-8 IgG MFI subtracted
Procedure: as §4

[24] = tested on: Ramos; assay: Apoptosis induction by cross-linked IgG (Annexin V/PI); assay type: cell-based, human; conditions: for Apoptosis Induction: Ramos, viable cells after 6 hour incubation, crosslinked, compared to control FITC-8 IgG1
Procedure: as §1, §2, §3, §4
(§5) BI-505 receptor occupancy was studied following FACS analyses of tumor cells incubated with increasing concentrations of BI-505 in vitro. Briefly, following pre-blocking of tumor cell FcγR with 1 mg/ml human IgG on ice for 15 min, tumor cells were incubated with 10-fold serially diluted (10 μg/ml to 0.00001 μg/ml) AF647-BI505 and surface bound BI-505 was recorded as the mean fluorescence intensities (MFI) picked up in the FL4 channel of a FACSCalibur instrument. The experiment was repeated three times and mean MFI values were calculated and plotted as a function of antibody concentration. A binding saturation curve was generated by plotting mean MFI values as a function of BI-505 concentration. The curve was fitted using a five-parameter log-log curve and XLfit software. BI-505 concentration dependent PCD was calculated by plotting the percentage of maximal tumor PCD in vitro as a function of BI-505 concentration in a manner analogous to that described for BI-505 receptor occupancy. Briefly, tumor cells were cultured with increasing concentrations of BI-505 in the presence of hyper-cross-linking antibody reagent for 24 hr, and PCD was monitored after combined staining with Annexin V/AF488 and propidium iodide using flow cytometry. Cells received treatment in triplicate and the experiment was repeated three to five times. Mean percentage of maximal PCD was then plotted as a function of BI-505 concentration and was fitted using a five parameter log-log curve and XLfit software. In vitro PCD and in vivo anti-tumor activity were plotted as a function of receptor occupancy using curve fitting equations and data generated and described above.

[25] = tested on: Raji; assay: as above; assay type: cell-based, human; conditions: for Apoptosis Induction: Raji, viable cells after 6 hour incubation, crosslinked, compared to control FITC-8 IgG1
Procedure: as §1, §2, §3, §4, §5

[26] = tested on: Daudi; assay: as above; assay type: cell-based, human; conditions: for Apoptosis Induction: Daudi, viable cells after 6 hour incubation, crosslinked, compared to control FITC-8 IgG1
Procedure: as §1, §2, §3, §4, §5

| Molecule | Apoptosis Induction [1] | Apoptosis Induction [2] | Apoptosis Induction [3] | Apoptosis Induction [4] | Apoptosis Induction [5] | Apoptosis Induction [6] | Apoptosis Induction [7] | MFI [8] | MFI [9] | MFI [10] | MFI [11] | MFI [12] | MFI [13] | MFI [14] | MFI [15] | MFI [16] | MFI [17] | MFI [18] | MFI [19] | MFI [20] | also measured |
| --- | --- | --- | --- | --- | --- | --- | --- | --- | --- | --- | --- | --- | --- | --- | --- | --- | --- | --- | --- | --- | --- |
| B11: fully human IgG1 antibody specific for ICAM-1; VH and VL sequences of FIG. 10 (SEQ ID NOs. 6 and 8) (antibody, listed as Homo sapiens, V domains shown) VH: EVQLLESGGGLVQPGGSLRLSCAASGFTFSNAWMSWVRQAPGKGLEWVAFIWYDGSNKYYADSVKGRFTISRDNSKNTLYLQMNSLRAEDTAVYYCARYSGWYFDYWGQGTLVTVSS VL: QSVLTQPPSASGTPGQRVTISCTGSSSNIGAGYDVHWYQQLPGTAPKLLIYDNNNRPSGVPDRFSGSKSGTSASLAISGLRSEDEADYYCQSYDSSLSAWLFGGGTKLTVLG | − | − | + (95-80%) | − | ++ (79-60%) | + (95-80%) | + (95-80%) | 380 | 100 | 100 | 0 | 100 | 340 | 100 | 420 | 260 | 600 | 0 | 150 | 310 | MFI [21]: 90; MFI [22]: 30; MFI [23]: 120; PCD induction ([24]; ICAM-1-expressing Ramos lymphoma cells): dose-dependently induced PCD; Apoptosis Induction [24]: ++ (79-60%); PCD induction ([25]; ICAM-1-expressing Raji lymphoma cells): dose-dependently induced PCD; Apoptosis Induction [25]: + (95-80%); Apoptosis Induction [26]: + (95-80%); PCD induction ([26]; ICAM-1-expressing Daudi lymphoma cells): dose-dependently induced PCD |
| C11: fully human IgG1 antibody specific for surface IgM; VH and VL sequences of FIG. 11 (SEQ ID NOs. 10 and 12) (antibody, listed as Homo sapiens, V domains shown) VH: EVQLLESGGGLVQPGGSLRLSCAASGFTFGSYEMNWVRQAPGKGLEWVSVIYSGGSTYYADSVEGRFTISRDNSKNTLYLQMNSLRAEDTAVYYCARDTNPYYYYGMDVWGQGTLVTVSS VL: QSVLTQPPSASGTPGQRVTISCSGSSSNIGNNAVNWYQQLPGTAPKLLIYRNNQRPSGVPDRFSGSKSGTSASLAISGLRSEDEADYYCQSYDSSLNGQVFGGGTKLTVLG | − | − | − | − | + (95-80%) | + (95-80%) | ++ (79-60%) | 900 | 90 | 210 | 50 | 240 | 10 | 10 | 20 | 60 | 60 | 60 | 450 | 510 | MFI [21]: 360; MFI [22]: 1040; MFI [23]: 0; Apoptosis Induction [24]: +++ (59-40% viable cells compared to control (human FITC-8 IgG1)); Apoptosis Induction [25]: + (95-80%); Apoptosis Induction [26]: + (95-80%) |
